US20250034594A1, “RNA-GUIDED GENOME RECOMBINEERING AT KILOBASE SCALE” (THE BOARD OF TRUSTEES OF THE LELAND STANFORD JUNIOR …, priority 2021, published 2025)

Columns and labels:
[1] = system: DYNLT1 locus; assay: mKate knock-in gene-editing assay, RecE/RecT homologs, DYNLT1 locus; format: cell-based, human; conditions: HEK293 cells, MCP fusion, n=3
Description: (§1) Transfection HEK293T cells were seeded into 96-well plates (Corning) 12-24 hours prior to transfection at a density of 30,000 cells/well, and 250 ng of total DNA was transfected per well. HeLa and HepG2 cells were seeded into 48-well plates (Corning) one day prior to transfection at a density of 50,000 and 30,000 cells/well respectively, and 400 ng of total DNA was transfected per well. Transfections were performed with Lipofectamine 3000 (Life Technologies) following the manufacturer's instructions.
(§2) Fluorescence-activated cell sorting (FACS) mKate knock-in efficiency was analyzed on a CytoFLEX flow cytometer (Beckman Coulter; Stanford Stem Cell FACS Core). 72 hours after transfection, cells were washed once with PBS and dissociated with TrypLE Express Enzyme (Thermo Fisher Scientific). Cell suspension was then transferred to a 96-well U-bottom plate (Thermo Fisher Scientific) and centrifuged at 300×G for 5 minutes. After removing the supernatant, pelleted cells were resuspended with 50 μl 4% FBS in PBS, and cells were sorted within 30 minutes of preparation.
(§3) 15 different species of microbes having RecE/RecT proteins were selected for a screen of various RecE and RecT proteins across the microbial kingdom (Table 3). Each protein was codon-optimized and synthesized. As previously described for E. coli RecE/RecT based REDIT systems, each protein was fused via E-XTEN linker to the MCP protein with additional nuclear localization signal. mKate knock-in gene-editing assay was used to measure efficiencies at DYNLT1 locus (FIG. 26A, Table 4) and HSP90AA1 locus (FIG. 26B, Table 4).

[2] = system: HSP90AA1 locus; assay: mKate knock-in gene-editing assay, RecE/RecT homologs, HSP90AA1 locus; format: cell-based, human; conditions: HEK293 cells, MCP fusion, n=3
Description: as §1, §2, §3

| Molecule | Mean mKate+ (%), DYNLT1 [1] [%] | Mean mKate+ (%), HSP90AA1 [2] [%] |
| --- | --- | --- |
| Homolog_T7: RecT, Providencia alcalifaciens DSM 30120; SEQ ID NO: 143 (protein, listed as Providencia alcalifaciens) MKAQLAAALPKHITSDRMIRIVSTEIRKTPSLANCDIQSFIGAVVQCSQLGLEPGNALGHAYLLPFGNGKSDNGKSNVQLIIGYRGMIDLARRSGQIISISARTVRQGDNFHFEYGLNENLTHIPEGNEDSPITHVYAVARLKDEGVQFEVMTYNQIEKVRDSSKAGKNGPWVTHWEEMAKKTVIRRLFKYLPVSIEMQKAVILDEKAEANIEQDHSAIFEAEFEEVDSNGN | 5.6467 | 5.3700 |
| Homolog_E7: RecE, Providencia alcalifaciens DSM 30120; SEQ ID NO: 144 (protein, listed as Providencia alcalifaciens) MNEGIYYDISNEDYHHGLGISKSQLDLIDESPADFIWHRDAPVDNEKTKALDFGTALHCLLLEPDEFQKRFRIAPEVNRRTNAGKEQEKEFLEMCEKENITPITNEDNRKLSLMKDSAMAHPIARWCLEAKGIAESSIYWKDKDTDILCRCRPDKLIEEHHWLVDVKSTADIQKFERSMYEYRYHVQDSFYSDGYKSLTGEMPVFVFLAVSTVINCGRYPVRVFVLDEQAKSVGRITYKQNLFTYAECLKTDEWAGIRTLSLPSWAKELKHEHTTAS | 4.4733 | 5.7367 |
| Homolog_T8: RecT, Shewanella putrefaciens; SEQ ID NO: 127 (protein, listed as Shewanella putrefaciens) MQTAQVKLSVPHQQVYQDNFNYLSSQVVGHLVDLNEEIGYLNQIVFNSLSTASPLDVAAPWSVYGLLLNVCRLGLSLNPEKKLAYVMPSWSETGEIIMKLYPGYRGEIAIASNFNVIKNANAVLVYENDHFRIQAATGEIEHFVTSLSIDPRVRGACSGGYCRSVLMDNTIQISYLSIEEMNAIAQNQIEANMGNTPWNSIWRTEMNRVALYRRAAKDWRQLIKATPEIQSALSDTEY | 5.0400 | 5.7133 |
| Homolog_E8: RecE, Shewanella putrefaciens; SEQ ID NO: 128 (protein, listed as Shewanella putrefaciens) MGTALAQTISLDWQDTIQPAYTASGKPNFLNAQGEIVEGIYTDLPNSVYHALDAHSSTGIKTFAKGRHHYFRQYLSDVCRQRTKQQEYTFDAGTYGHMLVLEPENFHGNFMRNPVPDDFPDIELIESIPQLKAALAKSNLPVSGAKAALIERLYAFDPSLPLFEKMREKAITDYLDLRYAKYLRTDVELDEMATFYGIDTSQTREKKIEEILAISPSQPIWEKLISQHVIDHIVWDDAMRVERSTRAHPKADWLISDGYAELTIIARCPTTGLLLKVRFDWLRNDAIGVDFKTTLSTNPTKFGYQIKDLRYDLQQVFYCYVANLAGIPVKHFCFVATEYKDADNCETFELSHKKVIESTEEMFDLLDEFKEALTSGNWYGHDRSRSTWVIEV | 4.6567 | 7.0533 |
| Homolog_T9: RecT, Bacillus sp. MUM 116; SEQ ID NO: 129 (protein, listed as Bacillus sp.) MSKQLTTVNTQAVVGTFSQAELDTLKQTIAKGTTNEQFALFVQTCANSRLNPFLNHIHCIVYNGKEGATMSLQIAVEGILYLARKTDGYKGIECQLIHENDEFKFDAKSKEVDHQIGFPRGNVIGGYAIAKREGFDDVVVLMESNEVDHMLKGRNGHMWRDWFNDMFKKHIMKRAAKLQYGIEIAEDETVSSGPSVDNIPEYKPQPRKDITPNQDVIDAPPQQPKQDDEAAKLKAARSEVSKKFKKLGIVKEDQTEYVEKHVPGFKGTLSDFIGLSQLLDLNIEAQEAQSADGDLLD | 8.1300 | 6.2000 |
| Homolog_E9: RecE, Bacillus sp. MUM 116; SEQ ID NO: 130 (protein, listed as Bacillus sp.) MTYAADETLVQLLLSVDGKQLLLGRGLKKGKAQYYINEVPSKAKEFEEIRDQLFDKDLFMSLFNPSYFFTLHWEKQRAMMLKYVTAPVSKEVLKNLPEAQSEVLERYLKKHSLVDLEKIHKDNKNKQDKAYISAQSRTNTLKEQLMQLTEEKLDIDSIKAELAHIDMQVIELEKQMDTAFEKNQAFNLQAQIRNLQDKIEMSKERWPSLKNEVIEDTCRTCKRPLDEDSVEAVKADKDNRIAEYKAKHNSLVSQRNELKEQLNTIEYIDVTELREQIKELDESGQPLREQVRIYSQYQNLDTQVKSAEADENGILQDLKASIFILDSIKAFRGKEAEMQAEKVQALFTTLSVRLFKQNKGDGEIKPDFEIEMNDKPYRTLSLSEGIRAGLELRDVLSQQSELVTPTFVDNAESITSFKQPNGQLIISRVVAGQELKIEAVSE | 5.3233 | 5.6900 |
| Homolog_T10: RecT, Shigella sonnei; SEQ ID NO: 131 (protein, listed as Shigella sonnei) MTKQPPIAKADLQKTQENRAPAAIKNNDVISFINQPSMKEQLAAALPRHMTAERMIRIATTEIRKVPALGNCDTMSFVSAIVQCSQLGLEPGSALGHAYLLPFGNKNEKSGKKNVQLIIGYRGMIDLARRSGQIASLSARVVREGDEFNFEFGLDEKLIHRPGENEDAPVTHVYAVARLKDGGTQFEVMTRRQIELVRSQSKAGNNGPWVTHWEEMAKKTAIRRLFKYLPVSIEIQRAVSMDEKEPLTIDPADSSVLTGEYSVIDNSEE | 8.5333 | 5.5900 |
| Homolog_E10: RecE, Shigella sonnei; SEQ ID NO: 132 (protein, listed as Shigella sonnei) DRGLLTKEWRKGNRVSRITRTASGANAGGGNLTDRGEGFVHDLTSLARDIATGVLARSMDVDIYNLHPAHAKRIEEIIAENKPPFSVFRDKFITMPGGLDYSRAIVVASVKEAPIGIEVIPAHVTAYLNKVLTETDHANPDPEIVDIACGRSSAPMPQRVTEEGKQDDEEKLQPSGTTADEQGEAETMEPDATKHHQDTQPLDAQSQVNSVDAKYQELRAELHEARKNIPSKNPVDADKLLAASRGEFVDGISDPNDPKWVKGIQTRDSVYQNQPETEKTSPDMKQPEPVVQQEPEIAFNACGQTGGDNCPDCGAVMGDATYQETFDEENQVEAKENDPEEMEGAEHPHNENAGSDPHRDCSDETGEVADPVIVEDIEPGIYYGISNENYHAGPGVSKSQLDDIADTPALYLWRKNAPVDTTKTKTLDLGTAFHCRVLEPEEFSNRFIVAPEFNRRTNAGKEEEKAFLMECASTGKMVITAEEGRKIELMYQSVMALPLGQWLVESAGHAESSIYWEDPETGILCRCRPDKIIPEFHWIMDVKTTADIQRFKTAYYDYRYHVQDAFYSDGYEAQFGVQPTFVFLVASTTIECGRYPVEIFMMGEEAKLAGQLEYHRNLRTLADCLNTDEWPAIKTLSLPRWAKEYAND | 4.4000 | 3.5900 |
| Homolog_T11: RecT, Salmonella enterica; SEQ ID NO: 133 (protein, listed as Salmonella enterica) MTKQPPIAKADLQKTQGNRAPAAVNDKDVLCVINSPAMKAQLAAALPRHMTAERMIRIATTEIRKVPELRNCDSTSFIGAIVQCSQLGLEPGSALGHAYLLPFGNGKAKNGKKNVQLIIGYRGMIDLARRSGQIISLSARVVRECDEFSYELGLDEKLVHRPGENEDAPITHVYAVAKLKDGGVQFEVMTKKQVEKVRDTHSKAAKNAASKGASSIWDEHFEDMAKKTVIRKLFKYLPVSIEIQRAVSMDGKEVETINPDDISVIAGEYSVIDNPEE | 9.8467 | 4.9233 |
| Homolog_E11: RecE, Salmonella enterica; SEQ ID NO: 134 (protein, listed as Salmonella enterica) DRGLLTKEWRKGNRVSRITRTASGANAGGGNLTDRGEGFVHDLTSLARDVATGVLARSMDVDIYNLHPAHAKRVEEIIAENKPPFSVFRDKFITMPGGLDYSRAIVVASVKEAPIGIEVIPAHVTEYLNKVLTETDHANPDPEIVDIACGRSSAPMPQRVTEEGKQDDEEKPQPSGAMADEQATAETVEPNATEHHQNTQPLDAQSQVNSVDAKYQELRAELQEARKNIPSKNPVDADKLLAASRGEFVDGISDPNDPKWVKGIQTRDSVYQNQPETEKISPDAKQPEPVVQQEPETVCNACGQTGGDNCPDCGAVMGDATYQETFGEENQVEAKEKDPEEMEGAEHPHNENAGSDPHRDCSDETGEVADPVIVEDIEPGIYYGISNENYHAGPGVSKSQLDDIADTPALYLWRKNAPVDTTKTKTLDLGTAFHCRVLEPEEFSNRFIVAPEFNRRTNAGKEEEKAFLMECASTGKTVITAEEGRKIELMYQSVMALPLGQWLVESAGHAESSIYWEDPETGILCRCRPDKIIPEFHWIMDVKTTADIQRFKTAYYDYRYHVQDAFYSDGYEAQFGVQPTFVFLVASTTVECGRYPVEIFMMGEEAKLAGQQEYHRNLRTLADCLNTDEWPAIKTLSLPRWAKEYAND | 7.0567 | 3.1167 |
| Homolog_T12: RecT, Acetobacter; SEQ ID NO: 135 (protein, listed as Acetobacter sp.) MNAPQKQNTRAAVKKISPQEFAEQFAAIIPQVKSVLPAHVTFEKFERVVRLAVRKNPDLLTCSPASLFMACIQAASDGLLPDGREGAIVSRWSSKKSCNEASWMPMVAGLMKLARNSGDIASISSQVVFEGEHFRVVLGDEERIEHERDLGKTGGKIVAAYAVARLKDGSDPIREIMSWGQIEKIRNTNKKWEWGPWKAWEDEMARKTVIRRLAKRLPMSTDKEGERLRSAIERIDSLVDISANVDAPQIAADDEFAAAAHGVEPQQIAAPDLIGRLAQMQSLEQVQDIEPQVSHAIQEADKRGDSDTANALDAALQSALSRTSTAKEEVPA | 8.5900 | 5.2733 |
